In patent US20260265379A1:

Target: BTN3A expressed at the cell surface (human), O00481
Experiment: cell-based or functional assay

BTN3A expressed at the cell surface (human), O00481, sequence (O00481 30-513): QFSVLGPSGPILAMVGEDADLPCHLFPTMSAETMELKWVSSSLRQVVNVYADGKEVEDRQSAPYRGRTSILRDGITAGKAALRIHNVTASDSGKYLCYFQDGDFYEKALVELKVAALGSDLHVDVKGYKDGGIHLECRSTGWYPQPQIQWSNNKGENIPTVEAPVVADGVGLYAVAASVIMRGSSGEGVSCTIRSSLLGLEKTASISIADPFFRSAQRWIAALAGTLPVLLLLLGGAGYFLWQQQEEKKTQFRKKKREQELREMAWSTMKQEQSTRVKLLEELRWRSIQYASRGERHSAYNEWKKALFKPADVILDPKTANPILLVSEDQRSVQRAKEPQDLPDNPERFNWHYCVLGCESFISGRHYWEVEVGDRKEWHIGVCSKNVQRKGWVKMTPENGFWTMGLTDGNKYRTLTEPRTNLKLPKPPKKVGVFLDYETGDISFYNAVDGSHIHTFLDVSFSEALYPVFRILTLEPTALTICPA

Binder | Jurkat-Vy9Vo2 TCR MOP activation at 0.5 nM (fold-change to medium) | Jurkat-Vy9Vo2 TCR MOP activation at 5 nM (fold-change to medium)
bsAb036 (bispecific antibody, not shown: small tags and cut ends; a dimerising Fc or GST) heavy (part 1 of 2): EVQLVESGGGLVQPGGSLRLSCAASGFTFSRYWMSWVRQAPGKGLEWVANIKQDGSEKYYVDSVKGRFTISRDNAKNSLYLQMNSLRAEDTAVYYCAREGGWFGELAFDYWGQGTLVTVSS heavy (part 2 of 2): GGGGSGGGGSGGGGSGGGGSQVQLVQSGAEVKKPGASVKLSCKASGYIFTRYYMYWVKQRPGQGLEWIGEINPNNGGTKFNEKFKNRATLTVDKSISTAYMELSRLRSDDTAVYYCSREDDYDGTPFAMDYWGQGTLVTVSSGGGGSGGGGSGGGGSGGGGSDIQMTQSPSSLSASVGDRVTITCHASQNINVWLSWYQQKPGKAPKLLIYKASNLHTGVPSRFTGSGSGTDFTFTISSLQPEDIATYYCQQGQTYPYTFGQGTKLEIK heavy: GGGGSGGGGSGGGGSGGGGSQVQLVQSGAEVKKPGASVKLSCKASGYIFTRYYMYWVKQRPGQGLEWIGEINPNNGGTKFNEKFKNRATLTVDKSISTAYMELSRLRSDDTAVYYCSREDDYDGTPFAMDYWGQGTLVTVSSGGGGSGGGGSGGGGSGGGGSDIQMTQSPSSLSASVGDRVTITCHASQNINVWLSWYQQKPGKAPKLLIYKASNLHTGVPSRFTGSGSGTDFTFTISSLQPEDIATYYCQQGQTYPYTFGQGTKLEIK light: EIVLTQSPGTLSLSPGERATLSCRASQRVSSSYLAWYQQKPGQAPRLLIYDASSRATGIPDRFSGSGSGTDFTLTISRLEPEDFAVYYCQQYGSLPWTFGQGTKVEIKRTVAAPSVFIFPPSDEQLKSGTASVVCLLNNFYPREAKVQWKVDNALQSGNSQESVTEQDSKDSTYSLSSTLTLSKADYEKHKVYACEVTHQGLSSPVTKSFNRGEC | 0.9 | 0.9
bsAb054 (bispecific antibody, not shown: small tags and cut ends) heavy (part 1 of 2): EVQLVESGGGLVQPGGSLRLSCAASGFTFSRYWMSWVRQAPGKGLEWVANIKQDGSEKYYVDSVKGRFTISRDNAKNSLYLQMNSLRAEDTAVYYCAREGGWFGELAFDYWGQGTLVTVSS heavy (part 2 of 2): GGGGSGGGGSGGGGSGGGGSQVQLVQSGAEVKKPGASVKLSCKASGYIFTRYYMYWVKQRPGQGLEWIGEINPNNGGTKFNEKFKNRATLTVDKSISTAYMELSRLRSDDTAVYYCSREDDYDGTPFAMDYWGQGTLVTVSSGGGGSGGGGSGGGGSGGGGSDIQMTQSPSSLSASVGDRVTITCHASQNINVWLSWYQQKPGKAPKLLIYKASNLHTGVPSRFTGSGSGTDFTFTISSLQPEDIATYYCQQGQTYPYTFGQGTKLEIK heavy: EVQLVESGGGLVQPGGSLRLSCAASGFTFSRYWMSWVRQAPGKGLEWVANIKQDGSEKYYVDSVKGRFTISRDNAKNSLYLQMNSLRAEDTAVYYCAREGGWFGELAFDYWGQGTLVTVSS light: EIVLTQSPGTLSLSPGERATLSCRASQRVSSSYLAWYQQKPGQAPRLLIYDASSRATGIPDRFSGSGSGTDFTLTISRLEPEDFAVYYCQQYGSLPWTFGQGTKVEIKRTVAAPSVFIFPPSDEQLKSGTASVVCLLNNFYPREAKVQWKVDNALQSGNSQESVTEQDSKDSTYSLSSTLTLSKADYEKHKVYACEVTHQGLSSPVTKSFNRGEC | 2.8 | 1
bsAb041 (bispecific antibody, not shown: small tags and cut ends; a dimerising Fc or GST) heavy (part 1 of 2): EVQLVESGGGLVQPGGSLRLSCAASGFTFSRYWMSWVRQAPGKGLEWVANIKQDGSEKYYVDSVKGRFTISRDNAKNSLYLQMNSLRAEDTAVYYCAREGGWFGELAFDYWGQGTLVTVSS heavy (part 2 of 2): GGGGSGGGGSGGGGSGGGGSDIQMTQSPSSLSASVGDRVTITCHASQNINVWLSWYQQKPGKAPKLLIYKASNLHTGVPSRFTGSGSGTDFTFTISSLQPEDIATYYCQQGQTYPYTFGQGTKLEIKGGGGSGGGGSGGGGSGGGGSQVQLVQSGAEVKKPGASVKLSCKASGYIFTRYYMYWVKQRPGQGLEWIGEINPNNGGTKFNEKFKNRATLTVDKSISTAYMELSRLRSDDTAVYYCSREDDYDGTPFAMDYWGQGTLVTVSS heavy: GGGGSGGGGSGGGGSGGGGSDIQMTQSPSSLSASVGDRVTITCHASQNINVWLSWYQQKPGKAPKLLIYKASNLHTGVPSRFTGSGSGTDFTFTISSLQPEDIATYYCQQGQTYPYTFGQGTKLEIKGGGGSGGGGSGGGGSGGGGSQVQLVQSGAEVKKPGASVKLSCKASGYIFTRYYMYWVKQRPGQGLEWIGEINPNNGGTKFNEKFKNRATLTVDKSISTAYMELSRLRSDDTAVYYCSREDDYDGTPFAMDYWGQGTLVTVSS light: EIVLTQSPGTLSLSPGERATLSCRASQRVSSSYLAWYQQKPGQAPRLLIYDASSRATGIPDRFSGSGSGTDFTLTISRLEPEDFAVYYCQQYGSLPWTFGQGTKVEIKRTVAAPSVFIFPPSDEQLKSGTASVVCLLNNFYPREAKVQWKVDNALQSGNSQESVTEQDSKDSTYSLSSTLTLSKADYEKHKVYACEVTHQGLSSPVTKSFNRGEC | 0.9 | 1

More lines, now with the values ahead:

Jurkat-Vy9Vo2 TCR MOP activation at 0.5 nM (fold-change to medium) | Jurkat-Vy9Vo2 TCR MOP activation at 5 nM (fold-change to medium) | Binder
2.4 | 3.8 | bsAb069 (bispecific antibody, not shown: small tags and cut ends; a dimerising Fc or GST) heavy 1: EVQLVESGGGLVQPGGSLRLSCAASGFTFSRYWMSWVRQAPGKGLEWVANIKQDGSEKYYVDSVKGRFTISRDNAKNSLYLQMNSLRAEDTAVYYCAREGGWFGELAFDYWGQGTLVTVSS heavy 2: DIQMTQSPSSLSASVGDRVTITCHASQNINVWLSWYQQKPGKAPKLLIYKASNLHTGVPSRFTGSGSGTDFTFTISSLQPEDIATYYCQQGQTYPYTFGQGTKLEIKGGGGSGGGGSGGGGSGGGGSQVQLVQSGAEVKKPGASVKLSCKASGYIFTRYYMYWVKQRPGQGLEWIGEINPNNGGTKFNEKFKNRATLTVDKSISTAYMELSRLRSDDTAVYYCSREDDYDGTPFAMDYWGQGTLVTVSSGGGGSGGGGSGGGGSGGGGS light: EIVLTQSPGTLSLSPGERATLSCRASQRVSSSYLAWYQQKPGQAPRLLIYDASSRATGIPDRFSGSGSGTDFTLTISRLEPEDFAVYYCQQYGSLPWTFGQGTKVEIKRTVAAPSVFIFPPSDEQLKSGTASVVCLLNNFYPREAKVQWKVDNALQSGNSQESVTEQDSKDSTYSLSSTLTLSKADYEKHKVYACEVTHQGLSSPVTKSFNRGECGGGGSGGGGSGGGGSGGGGSQVQLVQSGAEVKKPGASVKLSCKASGYIFTRYYMYWVKQRPGQGLEWIGEINPNNGGTKFNEKFKNRATLTVDKSISTAYMELSRLRSDDTAVYYCSREDDYDGTPFAMDYWGQGTLVTVSSGGGGSGGGGSGGGGSGGGGSDIQMTQSPSSLSASVGDRVTITCHASQNINVWLSWYQQKPGKAPKLLIYKASNLHTGVPSRFTGSGSGTDFTFTISSLQPEDIATYYCQQGQTYPYTFGQGTKLEIK
1.5 | 1.3 | bsAb070 (bispecific antibody, not shown: small tags and cut ends; a dimerising Fc or GST) heavy 1: EVQLVESGGGLVQPGGSLRLSCAASGFTFSRYWMSWVRQAPGKGLEWVANIKQDGSEKYYVDSVKGRFTISRDNAKNSLYLQMNSLRAEDTAVYYCAREGGWFGELAFDYWGQGTLVTVSS heavy 2: QVQLVQSGAEVKKPGASVKLSCKASGYIFTRYYMYWVKQRPGQGLEWIGEINPNNGGTKFNEKFKNRATLTVDKSISTAYMELSRLRSDDTAVYYCSREDDYDGTPFAMDYWGQGTLVTVSSGGGGSGGGGSGGGGSGGGGSDIQMTQSPSSLSASVGDRVTITCHASQNINVWLSWYQQKPGKAPKLLIYKASNLHTGVPSRFTGSGSGTDFTFTISSLQPEDIATYYCQQGQTYPYTFGQGTKLEIKGGGGSGGGGSGGGGSGGGGS light: EIVLTQSPGTLSLSPGERATLSCRASQRVSSSYLAWYQQKPGQAPRLLIYDASSRATGIPDRFSGSGSGTDFTLTISRLEPEDFAVYYCQQYGSLPWTFGQGTKVEIKRTVAAPSVFIFPPSDEQLKSGTASVVCLLNNFYPREAKVQWKVDNALQSGNSQESVTEQDSKDSTYSLSSTLTLSKADYEKHKVYACEVTHQGLSSPVTKSFNRGECGGGGSGGGGSGGGGSGGGGSDIQMTQSPSSLSASVGDRVTITCHASQNINVWLSWYQQKPGKAPKLLIYKASNLHTGVPSRFTGSGSGTDFTFTISSLQPEDIATYYCQQGQTYPYTFGQGTKLEIKGGGGSGGGGSGGGGSGGGGSQVQLVQSGAEVKKPGASVKLSCKASGYIFTRYYMYWVKQRPGQGLEWIGEINPNNGGTKFNEKFKNRATLTVDKSISTAYMELSRLRSDDTAVYYCSREDDYDGTPFAMDYWGQGTLVTVSS
